# Laboratory results taken from patent publication US20240124607A1 (Merck Sharp & Dohme, published 2024).
# Tests used:
# [1] = target: T1, cynomolgus CEACAM5 on Ba/F3 cells (cynomolgus monkey); experiment: flow cytometry on Ba/F3 cells expressing cynomolgus CEACAM5, fold over background (FOB), 5-fold dilutions from 1600 nM
# T1 construct: whole, on cells
# Description: (§1) To examine the binding specificity of the TriNKETs to CEACAM5 compared to other CEACAM family members, Ba/F3 cells were engineered to express one of human CEACAM1, CEACAM6, CEACAM8, or cynomolgus CEACAM5. CEACAM5 TriNKETs were evaluated by flow cytometry starting at 1600 nM followed by 7 5-fold dilutions.
# [2] = target: T2, human CEACAM6 on Ba/F3 cells (human, UniProt P40199 35-320); experiment: flow cytometry on Ba/F3 cells expressing human CEACAM6, fold over background (FOB), 5-fold dilutions from 1600 nM
# T2 construct: whole, on cells
# T2 sequence (looked up): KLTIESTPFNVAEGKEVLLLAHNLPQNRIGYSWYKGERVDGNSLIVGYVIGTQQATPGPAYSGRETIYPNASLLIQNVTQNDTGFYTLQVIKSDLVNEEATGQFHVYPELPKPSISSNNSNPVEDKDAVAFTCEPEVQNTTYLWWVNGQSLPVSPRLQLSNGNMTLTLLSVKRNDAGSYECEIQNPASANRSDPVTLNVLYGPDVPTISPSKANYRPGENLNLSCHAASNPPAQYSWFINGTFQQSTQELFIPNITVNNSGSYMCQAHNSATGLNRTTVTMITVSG
# Description: as §1
# [3] = target: T3, Human CEACAM1 (human, UniProt P13688 35-428, limits assumed); experiment: SPR, 37C, pH 7.4
# T3 sequence (looked up): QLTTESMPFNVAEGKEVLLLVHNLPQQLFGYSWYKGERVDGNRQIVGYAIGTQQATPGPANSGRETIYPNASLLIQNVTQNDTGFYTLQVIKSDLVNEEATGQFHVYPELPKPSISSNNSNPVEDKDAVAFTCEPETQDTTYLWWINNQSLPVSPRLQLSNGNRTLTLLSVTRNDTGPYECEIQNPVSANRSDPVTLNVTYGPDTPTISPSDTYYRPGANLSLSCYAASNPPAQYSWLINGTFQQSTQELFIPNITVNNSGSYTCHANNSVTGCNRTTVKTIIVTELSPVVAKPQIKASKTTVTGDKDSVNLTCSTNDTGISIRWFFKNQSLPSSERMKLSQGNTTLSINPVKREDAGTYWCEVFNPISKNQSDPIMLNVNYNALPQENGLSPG
# Description: To determine the affinity and cross-reactivity of CEACAM5 TriNKET molecules, AB0411, AB0466, or AB0621 TriNKETs were captured using an anti-human Fc capture antibody (Cytiva, #BR100839) immobilized onto a Biacore CM5 standard surface sensor chip following manufacturer instructions. Human or cynomolgus CEACAM5 were titrated over captured AB0411, AB0466, and AB0621 as 2-fold serial dilutions starting from 300 nM. Association was monitored for 300 sec and dissociation was monitored for 600 sec. The assay was run at 37° C. at pH 7.4 and 6.0. The surface of the CM5 chip was regenerated with 10 mM glycine pH 1.5 for 20 sec at 100 μL/min.
# Binding to human and cynomolgus CEACAM1, 6, and 8 was assessed by SPR using the same protocol as for CEACAM5 but using up to 600 and 1200 nM for titration of each protein. There were no detectable binding signals at these concentrations for AB0621. In contrast, reproducible weak binding signals were detected for AB0411 and AB0466, but these two TriNKETs also bound to different epitope(s) on the N-terminus of CEACAM5. Typical weak binding sensorgrams for AB0411 and AB0466 against human CEACAM1 and 6 indicated weak but notable signals compared to AB0621. […]
# [4] = target: T4, Human CEACAM5 (K398) (human, UniProt P06731 35-685, limits assumed); experiment: SPR, 37C, pH 7.4; reference E398
# T4 construct: also called K398 allele
# T4 sequence: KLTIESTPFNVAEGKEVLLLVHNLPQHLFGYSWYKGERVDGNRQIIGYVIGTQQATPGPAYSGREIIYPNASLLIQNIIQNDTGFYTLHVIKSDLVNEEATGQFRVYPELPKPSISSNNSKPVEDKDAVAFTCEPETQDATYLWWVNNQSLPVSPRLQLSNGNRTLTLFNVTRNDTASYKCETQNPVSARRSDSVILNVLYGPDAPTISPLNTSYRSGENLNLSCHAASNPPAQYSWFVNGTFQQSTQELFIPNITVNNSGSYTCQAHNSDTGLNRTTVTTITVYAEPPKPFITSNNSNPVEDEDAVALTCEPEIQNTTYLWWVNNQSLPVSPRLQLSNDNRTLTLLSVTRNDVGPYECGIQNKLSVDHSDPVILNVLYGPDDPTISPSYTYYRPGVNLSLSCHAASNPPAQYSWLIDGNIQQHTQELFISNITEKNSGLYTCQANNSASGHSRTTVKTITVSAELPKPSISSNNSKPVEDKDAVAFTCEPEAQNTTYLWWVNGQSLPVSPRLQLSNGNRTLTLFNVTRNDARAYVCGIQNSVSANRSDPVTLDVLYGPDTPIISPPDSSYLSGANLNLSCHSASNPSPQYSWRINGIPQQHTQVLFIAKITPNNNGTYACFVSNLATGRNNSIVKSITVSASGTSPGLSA
# [5] = target: T5, Human CEACAM5 V83A (human, UniProt P06731 35-685, limits assumed); experiment: SPR, 37C, pH 7.4; reference E398
# T5 sequence: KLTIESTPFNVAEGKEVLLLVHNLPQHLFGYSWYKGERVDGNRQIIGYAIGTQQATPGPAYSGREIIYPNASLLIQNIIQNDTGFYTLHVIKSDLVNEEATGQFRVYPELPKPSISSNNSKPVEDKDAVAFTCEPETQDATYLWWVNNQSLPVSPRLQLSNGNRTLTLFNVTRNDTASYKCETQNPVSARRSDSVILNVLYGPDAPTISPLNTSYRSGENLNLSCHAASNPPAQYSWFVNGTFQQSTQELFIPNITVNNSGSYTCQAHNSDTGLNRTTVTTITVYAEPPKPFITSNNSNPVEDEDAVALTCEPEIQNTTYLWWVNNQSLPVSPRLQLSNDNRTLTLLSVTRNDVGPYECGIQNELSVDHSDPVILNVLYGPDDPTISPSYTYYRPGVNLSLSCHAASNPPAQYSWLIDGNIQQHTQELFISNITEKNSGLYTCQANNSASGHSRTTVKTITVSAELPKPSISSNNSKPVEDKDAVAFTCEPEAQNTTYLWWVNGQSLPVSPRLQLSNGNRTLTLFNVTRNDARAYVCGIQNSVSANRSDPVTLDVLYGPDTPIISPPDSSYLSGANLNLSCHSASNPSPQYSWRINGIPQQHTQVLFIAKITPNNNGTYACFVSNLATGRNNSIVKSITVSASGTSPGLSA
binder,measurement,setting,value
"AB0621 F3' CEACAM5 TriNKET (bispecific antibody, human IgG1, kappa) DIVMTQSPDSLAVSLGERATINCKSSHSLLYGNFQNNYLAWYQQKPGQPPKLLIYWASTRESGVPDRFSGSGSGTDFTLTISSLQAEDVAVYYCQQYYSYPYTFGCGTKLEIKGGGGSGGGGSGGGGSGGGGSQVQLVQSGAEVKKPGASVKVSCKASGYTFTAYTIHWVRQAPGQCLEWMGYINPSSGYTEYNQKFKDRTTLTADTSISTAYMELSRLRSDDTAVYYCTREGGLLWFDYWGQGTLVTVSSGSDKTHTCPPCPAPELLGGPSVFLFPPKPKDTLMISRTPEVTCVVVDVSHEDPEVKFNWYVDGVEVHNAKTKPREEQYNSTYRVVSVLTVLHQDWLNGKEYKCKVSNKALPAPIEKTISKAKGQPREPRVYTLPPCRDELTKNQVSLTCLVKGFYPSDIAVEWESNGQPENNYKTTPPVLVSDGSFTLYSKLTVDKSRWQQGNVFSCSVMHEALHNHYTQKSLSLSPG heavy: EVQLVESGGGLVKPGGSLRLSCAASGFTFSSYSMNWVRQAPGKGLEWVSSISSSSSYIYYADSVKGRFTISRDNAKNSLYLQMNSLRAEDTAVYYCARGAPIGAAAGWFDPWGQGTLVTVSSASTKGPSVFPLAPSSKSTSGGTAALGCLVKDYFPEPVTVSWNSGALTSGVHTFPAVLQSSGLYSLSSVVTVPSSSLGTQTYICNVNHKPSNTKVDKKVEPKSCDKTHTCPPCPAPELLGGPSVFLFPPKPKDTLMISRTPEVTCVVVDVSHEDPEVKFNWYVDGVEVHNAKTKPREEQYNSTYRVVSVLTVLHQDWLNGKEYKCKVSNKALPAPIEKTISKAKGQPREPQVCTLPPSRDELTENQVSLTCLVKGFYPSDIAVEWESNGQPENNYKTTPPVLDSDGSFFLYSWLTVDKSRWQQGNVFSCSVMHEALHNHYTQKSLSLSPG light: DIQMTQSPSSVSASVGDRVTITCRASQGISSWLAWYQQKPGKAPKLLIYAASSLQSGVPSRFSGSGSGTDFTLTISSLQPEDFATYYCQQGVSFPRTFGGGTKVEIKRTVAAPSVFIFPPSDEQLKSGTASVVCLLNNFYPREAKVQWKVDNALQSGNSQESVTEQDSKDSTYSLSSTLTLSKADYEKHKVYACEVTHQGLSSPVTKSFNRGEC",EC50 (read off the curve),[1],~50 nM
same,binding result,[2],no binding (tested: 1600 nM)
same,binding result,[3],no binding (tested: up to 600 and 1200 nM)
same,KD/KD(Ref),[4],1.1 fold
same,KD/KD(Ref),[5],2 fold
